In patent US20180362628A1 (KYMAB, published 2018):
Like-named read-outs stand apart in the source and are kept apart here. No end group written: not given here. *: point of attachment. Biotin = O=C1N[C@H]2[C@H](CS[C@H]2CCCCC(=O)*)N1

Columns and labels:
[1] = target: T1, Peptide #15 (Biotin-SGSGDGNPDPNANANV); test: BLI, biotin-peptide on streptavidin sensor, IgG1 in solution, 25 C
T1 construct: alanine scan variant; also called Peptide #15 44299
T1 peptide: Biotin-SGSGDGNPDPNANANV

[2] = target: T2, Peptide #1 (Biotin-SGSGKPKHKKLKQPGDGNPDPNANP) (N-terminal biotin); test: as above
T2 construct: also called Peptide #1 44286
T2 peptide: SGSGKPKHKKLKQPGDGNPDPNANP

[3] = target: T3, Peptide #7 (Biotin-SGSGDANPDPNANPNV); test: as above
T3 construct: alanine scan variant; also called Peptide #7 44291
T3 peptide: Biotin-SGSGDANPDPNANPNV

[4] = target: T4, Peptide #13 (Biotin-SGSGDGNPDPNKNPNV); test: as above
T4 construct: scan variant, alanine replaced by lysine; also called Peptide #13 44297
T4 peptide: Biotin-SGSGDGNPDPNKNPNV

[5] = target: T5, Peptide #9 (Biotin-SGSGDGNADPNANPNV); test: as above
T5 construct: alanine scan variant; also called Peptide #9 44293
T5 peptide: Biotin-SGSGDGNADPNANPNV

[6] = target: T6, Peptide #14 (Biotin-SGSGDGNPDPNAAPNV); test: as above
T6 construct: alanine scan variant; also called Peptide #14 44298
T6 peptide: Biotin-SGSGDGNPDPNAAPNV

[7] = target: T7, Peptide #6 (Biotin-SGSGAGNPDPNANPNV); test: as above
T7 construct: alanine scan variant; also called Peptide #6 44290
T7 peptide: Biotin-SGSGAGNPDPNANPNV

[8] = target: T8, Peptide #10 (Biotin-SGSGDGNPAPNANPNV); test: as above
T8 construct: alanine scan variant; also called Peptide #10 44294
T8 peptide: Biotin-SGSGDGNPAPNANPNV

[9] = target: T9, Peptide #8 (Biotin-SGSGDGAPDPNANPNV); test: as above
T9 construct: alanine scan variant; also called Peptide #8 44292
T9 peptide: Biotin-SGSGDGAPDPNANPNV

[10] = target: T10, Peptide #4 (Biotin-SGSGNPDPNANP); test: as above
T10 construct: also called Peptide #4 44285
T10 peptide: Biotin-SGSGNPDPNANP

[11] = target: T11, Peptide #16 (Biotin-SGSGDGNPDPNANPAV); test: as above
T11 construct: alanine scan variant; also called Peptide #16 44300
T11 peptide: Biotin-SGSGDGNPDPNANPAV

[12] = target: T12, Peptide #5 (Biotin-SGSGDGNPDPNANPNV), original sequence of the alanine scan; test: as above
T12 construct: also called Peptide #5 44289
T12 peptide: Biotin-SGSGDGNPDPNANPNV

[13] = target: T13, Peptide #11 (Biotin-SGSGDGNPDANANPNV); test: as above
T13 construct: alanine scan variant; also called Peptide #11 44295
T13 peptide: Biotin-SGSGDGNPDANANPNV

[14] = target: T14, Peptide #12 (Biotin-SGSGDGNPDPAANPNV); test: as above
T14 construct: alanine scan variant; also called Peptide #12 44296
T14 peptide: Biotin-SGSGDGNPDPAANPNV

[15] = target: T15, Peptide #17 (Biotin-SGSGDGNPDPNANPNA); test: as above
T15 construct: alanine scan variant; also called Peptide #17 44301
T15 peptide: Biotin-SGSGDGNPDPNANPNA

[16] = target: T16, Peptide #3 (Biotin-SGSGHKKLKQPGDGNPDPNANPN) (N-terminal biotin); test: as above
T16 construct: also called Peptide #3 44288
T16 peptide: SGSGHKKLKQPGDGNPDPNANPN

[17] = target: T17, biotinylated rCSP (biotin/rCSP, Example 3) (Plasmodium falciparum strain 3D7, UniProt P02893 19-389, biotinylated (sites not given)); test: BLI (Octet), biotin-rCSP on streptavidin sensor, antibody in solution
T17 construct: also called biotin/Pf CSP
T17 chain: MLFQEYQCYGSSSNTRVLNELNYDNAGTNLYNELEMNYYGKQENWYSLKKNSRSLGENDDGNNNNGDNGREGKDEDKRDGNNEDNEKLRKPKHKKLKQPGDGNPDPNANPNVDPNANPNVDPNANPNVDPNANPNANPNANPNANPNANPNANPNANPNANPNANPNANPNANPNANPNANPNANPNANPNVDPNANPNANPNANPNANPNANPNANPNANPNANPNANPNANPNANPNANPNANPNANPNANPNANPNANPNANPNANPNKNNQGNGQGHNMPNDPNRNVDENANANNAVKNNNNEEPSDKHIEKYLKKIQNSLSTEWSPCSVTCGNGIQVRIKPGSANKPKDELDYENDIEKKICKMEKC

[18] = target: T18, Recombinant CSP (Wellcome Trust Sanger Institute, FIG. 22), CSP ectodomain with BirA biotinylation tag, … (Plasmodium falciparum strain 3D7, UniProt Q7K740 19-376, biotinylated at the BirA substrate peptide); test: SPR, IgG1 captured, CSP as analyte, 40 C; apparent affinity (avidity)
T18 construct: extracellular domain; Expressed in HEK293, 45 kDa; order of the tags is that of the legend, not confirmed; also called biotinylated recombinant CSP

[19] = target: T17, biotinylated rCSP (biotin/rCSP, Example …); test: BLI (Octet), biotin-rCSP on streptavidin sensor, antibody in solution
[20] = target: T1, Peptide #15 (Biotin-SGSGDGNPDPNANANV); test: BLI, biotin-peptide on streptavidin sensor, IgG1 in solution, 25 C
[21] = target: T2, Peptide #1 …; test: as above
[22] = target: T3, Peptide #7 (Biotin-SGSGDANPDPNANPNV); test: as above
[23] = target: T5, Peptide #9 (Biotin-SGSGDGNADPNANPNV); test: as above
[24] = target: T6, Peptide #14 (Biotin-SGSGDGNPDPNAAPNV); test: as above
[25] = target: T7, Peptide #6 (Biotin-SGSGAGNPDPNANPNV); test: as above
[26] = target: T8, Peptide #10 (Biotin-SGSGDGNPAPNANPNV); test: as above
[27] = target: T9, Peptide #8 (Biotin-SGSGDGAPDPNANPNV); test: as above
[28] = target: T10, Peptide #4 (Biotin-SGSGNPDPNANP); test: as above
[29] = target: T11, Peptide #16 (Biotin-SGSGDGNPDPNANPAV); test: as above
[30] = target: T12, Peptide #5 (Biotin-SGSGDGNPDPNANPNV), …; test: as above
[31] = target: T13, Peptide #11 (Biotin-SGSGDGNPDANANPNV); test: as above
[32] = target: T14, Peptide #12 (Biotin-SGSGDGNPDPAANPNV); test: as above
[33] = target: T15, Peptide #17 (Biotin-SGSGDGNPDPNANPNA); test: as above
[34] = target: T16, Peptide #3 …; test: as above

B1: Antibody 668, human IgG1 (antibody, V domains shown)
VH: QVQLVQSGAEVKKPGASVKVSCKASGFTFTDYAMHWVRQAPGQRLEWMGWINAGNGYTKYSQKFQDRLTITRDTFASTVYMELSSLRSEDTTVYYCARDGFCPSNTCSGYYGMDVWGQGTTVTVSS
VL: QSALTQPASVSGSPGQSITISCTGTSSDVGSYNYVSWYQQHPGKAPKLMIYDVNTRPSGVSIRFSASKSGNTASLTVSGLQAEDEAVYYCSSYAGSSTWVFGGGTKLTVL
notes: human IgG1 with human lambda light chain constant region; HEK293 product; also called AB-000668; Ab668
With B1 the “Response (nm)” value [1] was 5.69 nm, the “Response (nm)” value [2] was 6.47 nm and the “Response (nm)” value [3] was 4.88 nm. The binding result [4] was “no binding (tested: LOD 0.170 nm)”, the “Response (nm)” value [5] was 4.72 nm and the “Response (nm)” value [6] was 0.597 nm. For the same binder, the “Response (nm)” value [7] was 4.9 nm, the “Response (nm)” value [8] was 5.82 nm and the “Response (nm)” value [9] was 4.86 nm. The “Response (nm)” value [10] was 4.69 nm, the “Response (nm)” value [11] was 4.72 nm and the “Response (nm)” value [12] was 4.71 nm. For the same binder, the “Response (nm)” value [13] was 6.01 nm, the “Response (nm)” value [14] was 4.74 nm and the “Response (nm)” value [15] was 4.86 nm. For the same binder, the “Response (nm)” value [16] was 6.34 nm, the Kd [17] was 570 pM and the Kd [18] was 50 pM. For the same binder, the koff [18] was 2.47e-05 s⁻¹, the kon [18] was 540000 M⁻¹ s⁻¹ and the Kd [19] was 570 pM. The koff [19] was 7.1e-05 s⁻¹ and the kon [19] was 125000 M⁻¹ s⁻¹.

B2: Antibody 667, human IgG1 (antibody, V domains shown)
VH: QVQLVQSGAEVKKPGASVKVSCRASGYTFTNYAMHWVRQAPGQRLEWMGWINAGNGYTKYSQKFQDRVTITRDTSATTAYMELSSLRSEDTAMYYCARDSFYDILSGPVYHYYGMDVWGQGTTVTVSS
VL: QSALTQPDSVSGSPGQSITISCTGTSNDVGIYNHVSWYQQHPGKAPKLMIYDVNKRPSGISNRFSGSKSGDTASLTISGLQAEDEADYYCCSYAGSSAWVFGGGTKLTVL
notes: human IgG1 with human lambda light chain constant region; also called AB-000667; Ab667
In the case of B2, the Kd [17] is reported as 340 pM, the Kd [18] is reported as 310 pM and the koff [18] is reported as 6.46e-05 s⁻¹. For the same binder, the kon [18] was 215000 M⁻¹ s⁻¹, the “Response (nm)” value [20] was 0.213 nm and the “Response (nm)” value [21] was 0.645 nm. The “Response (nm)” value [22] was 0.951 nm, the “Response (nm)” value [23] was 0.696 nm and the “Response (nm)” value [24] was -0.0141 nm. The “Response (nm)” value [25] was 0.907 nm, the “Response (nm)” value [26] was 3.22 nm and the “Response (nm)” value [27] was 0.692 nm. The “Response (nm)” value [28] was 0.163 nm, the “Response (nm)” value [29] was 0.651 nm and the “Response (nm)” value [30] was 0.635 nm. The “Response (nm)” value [31] was 0.0953 nm, the “Response (nm)” value [32] was 0.0529 nm and the “Response (nm)” value [33] was 1.09 nm. For the same binder, the “Response (nm)” value [34] was 0.814 nm, the Kd [19] was 341 pM and the koff [19] was 5.67e-05 s⁻¹. For the same binder, the kon [19] was 166000 M⁻¹ s⁻¹.
